# Assay results as given in US20150037348A1 (AbbVie / Abbott, published 2015).
# T1: human IL-12 (human, UniProt P29459 23-219; P29460 23-328)
# T1 construct: recombinant human IL-12 heterodimer (p35/p40, disulfide-linked); also called hIL-12; rhIL-12
# T1 sequence (looked up) 1: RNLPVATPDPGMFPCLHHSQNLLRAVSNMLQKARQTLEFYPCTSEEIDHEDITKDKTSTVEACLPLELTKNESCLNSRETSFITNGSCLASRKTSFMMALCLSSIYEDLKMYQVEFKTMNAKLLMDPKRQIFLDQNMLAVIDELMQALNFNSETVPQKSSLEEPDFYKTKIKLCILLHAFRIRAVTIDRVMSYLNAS
# T1 sequence (looked up) 2: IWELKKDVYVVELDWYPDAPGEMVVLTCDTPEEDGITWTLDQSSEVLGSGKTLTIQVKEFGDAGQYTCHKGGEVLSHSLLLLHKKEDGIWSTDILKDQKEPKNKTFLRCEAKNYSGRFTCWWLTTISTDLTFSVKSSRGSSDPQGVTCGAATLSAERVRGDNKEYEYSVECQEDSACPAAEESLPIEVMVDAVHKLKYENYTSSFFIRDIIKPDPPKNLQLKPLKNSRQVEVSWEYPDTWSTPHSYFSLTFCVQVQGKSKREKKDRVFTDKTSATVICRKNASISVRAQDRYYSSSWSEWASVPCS
# T2: human interleukin 12 (p70 heterodimer of p35 and p40) (human, UniProt P29459 23-219; P29460 23-328)
# T2 construct: Recombinant human IL-12; p35 and p40 linked by a disulfide bridge; also called hIL-12; IL-12
# T2 sequence (looked up) 1: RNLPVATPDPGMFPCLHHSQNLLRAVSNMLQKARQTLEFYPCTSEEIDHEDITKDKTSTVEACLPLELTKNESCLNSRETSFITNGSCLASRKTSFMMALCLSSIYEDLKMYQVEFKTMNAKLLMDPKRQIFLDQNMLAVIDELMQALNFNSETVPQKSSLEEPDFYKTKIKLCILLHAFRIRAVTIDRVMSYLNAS
# T2 sequence (looked up) 2: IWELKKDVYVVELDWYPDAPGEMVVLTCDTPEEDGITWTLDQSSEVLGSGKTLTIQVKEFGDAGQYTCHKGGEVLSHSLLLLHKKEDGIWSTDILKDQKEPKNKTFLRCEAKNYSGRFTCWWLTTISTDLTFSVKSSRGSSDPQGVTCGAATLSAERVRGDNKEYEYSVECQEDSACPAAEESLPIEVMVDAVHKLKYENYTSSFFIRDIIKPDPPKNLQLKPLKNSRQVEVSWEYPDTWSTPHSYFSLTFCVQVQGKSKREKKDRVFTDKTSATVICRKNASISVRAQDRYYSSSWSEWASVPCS
# Columns and labels:
# [1] = target: T1, human IL-12; assay: SPR (BIAcore), IL-12 chip
# Source text: The system utilizes the optical properties of SPR to detect alterations in protein concentrations within a dextran biosensor matrix. Proteins are covalently bound to the dextran matrix at known concentrations. […] To determine the off rate (koff), on rate (kₒₙ), association rate (Ka) and dissociation rate (Kd) constants, BIAcore kinetic evaluation software (version 2.1) was used.
# [2] = target: T1, human IL-12; assay: cell-based or functional assay
# [3] = target: T1, human IL-12; assay: RB assay: 125I-hIL-12 binding to PHA blasts
# Protocol: PHA blast cells isolated as described above, were washed once and resuspended in binding buffer to a cell density of 2×10⁷ cells/ml. […] The cell pellet was examined for cell bound radioactivity using a gamma counter. […] Incubations were carried out in duplicate.
# [4] = target: T2, human interleukin 12 (p70 heterodimer …); assay: BIAcore
Binder,koff [1] [s⁻¹],PHA assay IC50 [2] [nM],IC50 [3] [nM],koff [4] [s⁻¹]
"Y17 (scFv, V domains shown, scFv) VH: QVQLVQSGGGVVQPGRSLRLSCAASGFTFSSYGMHWVRQAPGKGLEWVAFIRYDGSNKYYADSVKGRFTISRDNSKNTLYLQMKSLRAEDTAVYYCKTHGSHDNWGQGTMVTVSS VL: SYVLTQPPSVSGTPGQRVTISCSGGRSNIGSNTVKWYQQLPGTAPKLLIYGNDQRPSGVPDRFSGSKSGTSASLAITGVQAEDEADYYCQSYDRGSAPMINFGTGTKVTVL",8.9e-05,> 10,0.45,–
"Y61-L30D (scFv, V domains shown, copies: 1 + 1) VH: QVQLVQSGGGVVQPGRSLRLSCAASGFTFSSYGMHWVRQAPGKGLEWVAFIRYDGSNKYYADSVKGRFTISRDNSKNTLYLQMKSLRAEDTAVYYCKTHGSHDNWGQGTMVTVSS VL: SYVLTQPPSVSGTPGQRVTISCSGGRSNIGDNTVKWYQQLPGTAPKLLIYGNDQRPSGVPDRFSGSKSGTSASLAITGVQAEDEADYYCQSYDRGTHPALLFGTGTKVTVL",–,–,–,0.00022
"Y61-L30N (scFv, V domains shown, copies: 1 + 1) VH: QVQLVQSGGGVVQPGRSLRLSCAASGFTFSSYGMHWVRQAPGKGLEWVAFIRYDGSNKYYADSVKGRFTISRDNSKNTLYLQMKSLRAEDTAVYYCKTHGSHDNWGQGTMVTVSS VL: SYVLTQPPSVSGTPGQRVTISCSGGRSNIGNNTVKWYQQLPGTAPKLLIYGNDQRPSGVPDRFSGSKSGTSASLAITGVQAEDEADYYCQSYDRGTHPALLFGTGTKVTVL",–,–,–,0.000166
"Y61-L30K (scFv, V domains shown, copies: 1 + 1) VH: QVQLVQSGGGVVQPGRSLRLSCAASGFTFSSYGMHWVRQAPGKGLEWVAFIRYDGSNKYYADSVKGRFTISRDNSKNTLYLQMKSLRAEDTAVYYCKTHGSHDNWGQGTMVTVSS VL: SYVLTQPPSVSGTPGQRVTISCSGGRSNIGKNTVKWYQQLPGTAPKLLIYGNDQRPSGVPDRFSGSKSGTSASLAITGVQAEDEADYYCQSYDRGTHPALLFGTGTKVTVL",–,–,–,0.000346
"Y61-L30C (scFv, V domains shown, copies: 1 + 1) VH: QVQLVQSGGGVVQPGRSLRLSCAASGFTFSSYGMHWVRQAPGKGLEWVAFIRYDGSNKYYADSVKGRFTISRDNSKNTLYLQMKSLRAEDTAVYYCKTHGSHDNWGQGTMVTVSS VL: SYVLTQPPSVSGTPGQRVTISCSGGRSNIGCNTVKWYQQLPGTAPKLLIYGNDQRPSGVPDRFSGSKSGTSASLAITGVQAEDEADYYCQSYDRGTHPALLFGTGTKVTVL",–,–,–,0.000186

# Second part, the binder after the results:
koff [1] [s⁻¹],PHA assay IC50 [2] [nM],IC50 [3] [nM],koff [4] [s⁻¹],Binder
–,–,–,0.000182,"Y61-L30R (scFv, V domains shown, copies: 1 + 1) VH: QVQLVQSGGGVVQPGRSLRLSCAASGFTFSSYGMHWVRQAPGKGLEWVAFIRYDGSNKYYADSVKGRFTISRDNSKNTLYLQMKSLRAEDTAVYYCKTHGSHDNWGQGTMVTVSS VL: SYVLTQPPSVSGTPGQRVTISCSGGRSNIGRNTVKWYQQLPGTAPKLLIYGNDQRPSGVPDRFSGSKSGTSASLAITGVQAEDEADYYCQSYDRGTHPALLFGTGTKVTVL"
–,–,–,0.000483,"Y61-L30Y (scFv, V domains shown, copies: 1 + 1) VH: QVQLVQSGGGVVQPGRSLRLSCAASGFTFSSYGMHWVRQAPGKGLEWVAFIRYDGSNKYYADSVKGRFTISRDNSKNTLYLQMKSLRAEDTAVYYCKTHGSHDNWGQGTMVTVSS VL: SYVLTQPPSVSGTPGQRVTISCSGGRSNIGYNTVKWYQQLPGTAPKLLIYGNDQRPSGVPDRFSGSKSGTSASLAITGVQAEDEADYYCQSYDRGTHPALLFGTGTKVTVL"
0.00273,2,0.6,–,"149-6 (scFv, V domains shown, scFv) VH: QVQLVQSGGGVVQPGRSLRLSCAASGFTFSSYGMHWVRQAPGKGLEWVAFIRYDGSNKYYADSVKGRFTISRDNSKNTLYLQMKSLRAEDTAVYYCTTHGSHDNWGQGTMVTVSS VL: SYVLTQPPSVSGTPGQRVTISCSGGRSNIVSNTVKWYQQLPGTAPKLLIYGNDQRPSGVPDRFSGSKSGTSASLAITGVQAEDEADYYCQSYDRGFTGSRVFGTGTKVTVLG"
